Consider 1 molecule from article PMC6687543 (Structure (London, England : 1993), 2019).

The target in the assay is T1, preformed binary complex IL-18/IL-18Rα-ECD ( | human, UniProt Q14116 37-193; Q13478 22-329).
T1 sequence (looked up) 1: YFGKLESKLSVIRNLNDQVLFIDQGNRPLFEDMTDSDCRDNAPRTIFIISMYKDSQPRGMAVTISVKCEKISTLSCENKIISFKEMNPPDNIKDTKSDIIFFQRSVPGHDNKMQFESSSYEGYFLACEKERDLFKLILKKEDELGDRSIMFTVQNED
T1 sequence (looked up) 2: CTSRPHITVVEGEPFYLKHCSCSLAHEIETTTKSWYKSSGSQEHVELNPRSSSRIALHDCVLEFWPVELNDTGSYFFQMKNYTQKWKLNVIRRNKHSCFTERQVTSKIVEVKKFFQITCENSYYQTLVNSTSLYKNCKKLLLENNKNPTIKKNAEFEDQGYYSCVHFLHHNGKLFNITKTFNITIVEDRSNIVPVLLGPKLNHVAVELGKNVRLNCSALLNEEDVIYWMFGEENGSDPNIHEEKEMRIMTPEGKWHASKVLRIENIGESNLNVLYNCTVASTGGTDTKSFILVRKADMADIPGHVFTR
Briefly: SPR. For orientation: SPR reads the build-up and loss of mass on a sensor chip optically.

B1: IL-18Rβ-ECD (extracellular domain of IL-18 receptor beta), wild type (receptor, human, UniProt O95256 20-354, looked up)
chain: FNISGCSTKKLLWTYSTRSEEEFVLFCDLPEPQKSHFCHRNRLSPKQVPEHLPFMGSNDLSDVQWYQQPSNGDPLEDIRKSYPHIIQDKCTLHFLTPGVNNSGSYICRPKMIKSPYDVACCVKMILEVKPQTNASCEYSASHKQDLLLGSTGSISCPSLSCQSDAQSPAVTWYKNGKLLSVERSNRIVVDEVYDYHQGTYVCDYTQSDTVSSWTVRAVVQVRTIVGDTKLKPDILDPVEDTLEVELGKPLTISCKARFGFERVFNPVIKWYIKDSDLEWEVSVPEAKSIKSTLKDEIIERNIILEKVTQRDLRRKFVCFVQNSIGNTTQSVQLKE
modifications: biotin (biotinylated IL-18Rβ-ECD, site not stated)
Consider B1, for which the binding result is recorded as “binds”.
